This note sets out measurements from US9433687B2, “Anti-Notch3 antibodies and antibody-drug conjugates” (Pfizer Inc., priority 2012, dated 2016).

The target in one test is U2OS/hNotch3 (Homo sapiens, UniProt Q9UM47). Put plainly: Flow cytometry (FACS) binding, U2OS/hNotch3. The note with it: 4 μg/mL antibody; positive control cell line. Set-up: U-2 OS cells stably over-expressing human full length Notch3 protein on cell surface; expressed in transfected cells; host or cells: U-2 OS (human osteosarcoma). On the procedure: (§1) Unconjugated anti-Notch3 antibodies, hu28 and hu75, were examined for cell surface binding activity to Notch3 expressing cell lines by flow cytometry. Fluorescence activated cell sorting (FACS) analysis was conducted according to standard procedures. Cells were rinsed in HBSS with calcium chloride and magnesium chloride (herein termed HBSS++), harvested using trypsin without EDTA and neutralized with medium containing FBS. Cells were incubated on ice for 30 minutes with 4 μg/mL anti-Notch3 antibodies, hu28 and hu75, in HBSS++containing 3% HICS (heat-inactivated calf serum). Cells were washed three times with cold HBSS++, 3% HICS buffer. Cells were incubated in allophycocyanin-conjugated AffiniPure F(ab′)2 fragment goat anti-human IgG, Fc fragment secondary antibody (Jackson ImmunoResearch Laboratories, Inc., West Grove, Pa.) at 10 μg/mL for 30 minutes on ice in the dark. Cells were washed once with cold HBSS++/3% HICS buffer. Cells were resuspended in HBSS-++/3% HICS, 25 mM HEPES, 1 mM MgCl2 and 25 μg/ml DNaseI. 7-AAD (7-Amino-Actinomycin D) was added for exclusion of nonviable cells. Live cells were analyzed on a BD FACSCalibur flow cytometer (BD Biosciences, San Jose, Calif.). Mean fluorescence intensity (MFI) from channel FL-4 was calculated with FlowJo flow cytometry analysis software (Ashland, Oreg.).
Chain of U2OS/hNotch3 (Q9UM47 40-2321): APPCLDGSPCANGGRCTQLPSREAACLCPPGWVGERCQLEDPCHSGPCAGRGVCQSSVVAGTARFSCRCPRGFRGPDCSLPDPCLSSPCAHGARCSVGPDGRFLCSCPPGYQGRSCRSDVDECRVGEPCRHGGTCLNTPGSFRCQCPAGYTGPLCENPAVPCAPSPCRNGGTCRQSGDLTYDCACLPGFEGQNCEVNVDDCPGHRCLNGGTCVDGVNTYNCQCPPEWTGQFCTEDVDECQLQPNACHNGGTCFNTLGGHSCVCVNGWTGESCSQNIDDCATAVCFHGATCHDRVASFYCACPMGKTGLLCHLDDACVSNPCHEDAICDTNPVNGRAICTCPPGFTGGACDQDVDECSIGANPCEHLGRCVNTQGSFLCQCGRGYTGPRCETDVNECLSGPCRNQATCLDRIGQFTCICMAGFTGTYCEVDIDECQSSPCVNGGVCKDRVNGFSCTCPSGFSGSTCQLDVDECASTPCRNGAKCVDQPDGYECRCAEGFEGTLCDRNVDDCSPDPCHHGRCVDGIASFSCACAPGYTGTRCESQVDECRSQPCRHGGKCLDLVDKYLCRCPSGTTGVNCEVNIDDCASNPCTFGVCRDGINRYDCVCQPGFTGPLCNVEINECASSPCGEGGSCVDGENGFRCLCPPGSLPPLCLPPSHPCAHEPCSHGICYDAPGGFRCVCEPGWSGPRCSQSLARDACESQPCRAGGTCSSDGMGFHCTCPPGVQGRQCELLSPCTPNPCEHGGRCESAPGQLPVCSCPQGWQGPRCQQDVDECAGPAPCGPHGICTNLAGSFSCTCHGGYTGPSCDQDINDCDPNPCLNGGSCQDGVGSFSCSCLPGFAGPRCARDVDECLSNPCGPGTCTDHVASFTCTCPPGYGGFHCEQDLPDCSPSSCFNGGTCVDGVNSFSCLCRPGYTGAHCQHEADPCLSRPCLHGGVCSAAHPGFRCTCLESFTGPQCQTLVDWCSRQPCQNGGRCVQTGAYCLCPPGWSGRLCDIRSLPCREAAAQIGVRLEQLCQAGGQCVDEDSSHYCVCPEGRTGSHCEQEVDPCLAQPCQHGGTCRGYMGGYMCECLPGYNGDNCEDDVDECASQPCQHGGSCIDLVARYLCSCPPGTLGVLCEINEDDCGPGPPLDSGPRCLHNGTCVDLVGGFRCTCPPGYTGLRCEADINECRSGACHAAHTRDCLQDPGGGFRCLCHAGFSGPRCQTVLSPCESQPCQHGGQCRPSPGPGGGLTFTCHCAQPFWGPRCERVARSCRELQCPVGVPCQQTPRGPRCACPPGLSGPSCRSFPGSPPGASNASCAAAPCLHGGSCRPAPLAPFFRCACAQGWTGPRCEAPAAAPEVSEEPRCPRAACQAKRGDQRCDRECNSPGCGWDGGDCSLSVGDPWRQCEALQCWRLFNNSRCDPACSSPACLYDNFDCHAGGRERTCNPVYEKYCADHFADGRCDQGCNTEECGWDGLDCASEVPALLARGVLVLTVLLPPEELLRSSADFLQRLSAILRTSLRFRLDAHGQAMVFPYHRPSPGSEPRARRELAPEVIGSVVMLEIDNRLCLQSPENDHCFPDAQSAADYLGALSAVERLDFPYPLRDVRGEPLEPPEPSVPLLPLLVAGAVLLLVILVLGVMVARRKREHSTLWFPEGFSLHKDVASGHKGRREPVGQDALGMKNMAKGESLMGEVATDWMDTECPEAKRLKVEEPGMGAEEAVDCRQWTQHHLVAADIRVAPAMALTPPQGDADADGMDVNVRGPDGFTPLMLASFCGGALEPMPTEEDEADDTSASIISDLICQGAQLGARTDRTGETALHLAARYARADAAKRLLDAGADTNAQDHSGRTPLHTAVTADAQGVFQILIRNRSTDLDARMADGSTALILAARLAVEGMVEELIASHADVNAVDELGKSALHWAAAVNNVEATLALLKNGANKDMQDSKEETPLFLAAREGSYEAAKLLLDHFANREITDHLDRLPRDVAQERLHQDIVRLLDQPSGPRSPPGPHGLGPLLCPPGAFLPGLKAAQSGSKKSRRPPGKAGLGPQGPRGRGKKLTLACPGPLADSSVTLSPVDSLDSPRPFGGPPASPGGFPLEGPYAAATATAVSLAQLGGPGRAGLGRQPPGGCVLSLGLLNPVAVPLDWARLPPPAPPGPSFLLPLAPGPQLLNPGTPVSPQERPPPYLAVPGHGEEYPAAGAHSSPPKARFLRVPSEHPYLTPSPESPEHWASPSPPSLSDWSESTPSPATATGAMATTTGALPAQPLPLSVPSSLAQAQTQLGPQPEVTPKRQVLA
Background: Flow cytometry measures light scatter and fluorescence of single cells or particles in a stream.

The next test concerns the target T1, HCC2429 (Homo sapiens, UniProt Q9UM47).
T1 construct: endogenous Notch3 expressing cell lines, HCC2429 and MDA-MB-468; endogenous in cells; host or cells: HCC2429
Put plainly: Flow cytometry (FACS) binding, HCC2429. The conditions noted are these: 4 μg/mL antibody. On the procedure: as §1

Test [1] relates to HCC2429 or MDA-MB-468 cells. In words: Co-localization with LAMP1, indirect immunofluorescence. The format is cell-based, human. The conditions noted are these: 10 μg/ml; after incubation at 37° C. for 90 minutes. On the procedure: HCC2429 or MDA-MB-468 cells were cultured in a Lab Tec II 4 chambered coverglass with cover #1.5 borosilicate sterile slides (Thermo Fisher Scientific Inc.). For binding and internalization assays, cells were washed twice with HBSS++ and unconjugated anti-Notch3 antibodies, hu75 and hu28, were added to the cells at a concentration 10 μg/ml in 2% bovine serum albumin (BSA)/HBSS++ for 25 minutes on ice. To visual membrane binding at time 0 minutes, control cells were washed with ice cold HBSS++ and then fixed in 4% paraformaldehyde in PBS for 10 minutes. For antibody internalization, cells were washed twice with ice cold HBSS++ and then pre-warmed complete growth media was added to the cells and placed inside a humidified 37° C., 5% CO2 incubator. Cells were removed from the incubator, washed and fixed as before at multiple time points from 5 minutes to 18 hours. Cells were then washed 3 times with PBS, and permeabilized for 10 minutes with 0.3% Triton X-100 in PBS. Cells were washed 3 times with PBS for 5 minutes each time and then blocked for 1 hour in 3% BSA/PBS. Anti-LAMP-1 mouse monoclonal antibody (H4A3, Abcam) was added at 1:100 in 2% BSA/PBS for overnight incubation at 4° C. Cells were washed twice with PBS for 5 minutes each and then secondary goat anti-human Alexa Fluor 488 and goat anti-mouse Alexa Fluor 555 (Life technologies) were added for 45 minutes in the dark. […]

Test [2] addresses T2, cell surface Notch3 on HCC2429 cells (Homo sapiens, UniProt Q9UM47).
T2 construct: endogenous Notch3 expressing cell lines, HCC2429 and MDA-MB-468; endogenous in cells; host or cells: HCC2429
In words: Cell-based ELISA, HCC2429 cells. The conditions noted are these: Table 29; LB = lacked binding. On the procedure:
Unconjugated anti-Notch3 antibodies, anti-Notch3 ADCs and a negative control antibody (huNeg8.8) were screened for cell surface binding activity to Notch3 expressing cell lines in a cell-based ELISA. Over-expressing Notch3 cell line, U2OS/hNotch3, and endogenous Notch3 expressing cell lines, HCC2429 and MDA-MB-468, were plated at 50,000, 200,000 and 100,000 cells/well, respectively, in 96 well plates (white opaque, BD/VWR) the day before ELISA assay. On the day of the ELISA, culture media was removed from wells and serially diluted (1:3 in DPBS with calcium chloride and magnesium chloride (Ca/Mg) and 1% BSA) antibody and ADC solutions were applied to the plate. Plates were incubated at room temperature for 2 hours before washed with DPBS with Ca/Mg and 1% BSA. HRP-conjugated secondary antibody was then applied and incubated with cells for 1 hour. Plates were washed with DPBS with Ca/Mg and 1% BSA before being developed with Pico-Chemiluminescent developing kit (Thermal Scientific), and chemiluminescence measurements were performed per manufacturer's instructions. Data plotting and analyses were performed with Microsoft Excel and Graphpad-Prism software.
Unconjugated cysteine mutant humanized anti-Notch3 antibodies were screened for cell surface binding activity to Notch3 expressing cell lines in a cell-based ELISA, as described in previous Examples. […]

The term EC50 denotes the concentration at which the effect is half-maximal. A low value points to an effect from little substance.

T2 sequence (Q9UM47 40-2321): as above
T1 sequence (Q9UM47 40-2321): as above

B1: hu28 VH1.0/VL1.0: humanized r28 variant VH1.0/VL1.0, anti-Notch3 antibody (VH SEQ ID NO: 13, VL SEQ ID NO: 25) (antibody, V domains shown)
VH: EVQLVESGGGLVQPGGSLRLSCAASGFTFRDYGMTWVRQAPGKGLEWVAYISSGSNYIYYAEAVKGRFTISRDNAKNSLYLQMNSLRAEDTAVYYCARRGPFVLDAWGQGTLVTVSS
VL: DIQMTQSPSSLSASVGDRVTITCKASQSINRYLHWYQQKPGKAPKLLIYNANGLQTGVPSRFSGSGSGTDFTLTISSLQPEDFATYYCLQHNTWPDTFGGGTKVEIK
Turning to B1, the MFI is given as 256 in the test with U2OS/hNotch3 and 564 with HCC2429. Besides, the “co-localization with LAMP1 after internalization” value in test [1] is “co-localized with anti-LAMP1 antibodies”. Besides, in test [2], it took 0.1 nM to reach a half-maximal effect (EC50).
